Drawing on patent publication US20220380442A1 (published 2022), this text covers EC50 for 22 molecules.

First the molecules themselves.
B1: ANDV-44 (antibody, V domains shown)
VH: QVQLVQSGAEVRKPGASVKVSCKASGYTFTSNGVSWVRQAPGQGLEWMGWIAGYDGYTNYTQKFQGRVTMTTDTSTTTVYMELRSLRFDDTAVYYCARDEGLHNWKFNAMDVWGQGTTVIVSS
VL: EIVLTQSPGTLSLSPGERATLSCRASQSVSSSYLAWYQQKPGQAPRLLMSETSRRATGIPDRFSGSVSGTDFILTINRVDPEDFAVYYCQQYSSPPWTFGQGTKVEIK
B2: ANDV-54 (antibody, V domains shown)
VH: EVQLVESGGGVVQPGRSLRLSCAASGFTFSPYGMHWVRQAPGKGLEWVAVVWYDGNNKYYADSVKGRFTISRDNSKNTLYLQMNSLRAEDTAVYYCARENTPTYNSGYYFDYWGQGTLVTVSS
VL: QSALTQPASVSGSPGQSITISCTGTSSDVGSYDLVSWYQQHPGKAPKLIIYEGSKRPSGVSNRFSGSKSGNTASLTISGLQAEDEADYYCCSYAGSSTWVFGGGTKVTVL
B3: SNV-32 (antibody, V domains shown)
VH: QVQLVQSGAEVKKPGSSVKVSCRASGGTFRSYSISWVRQAPGQGLEWMGDIIPIFSTTNYAQKFQGRVTITADEATSTAYMELSSLRSDDTAVYYCARPSNLLNWFDPWGQGTLVTVSS
VL: EIVMTQSPATLSVSPGERATLSCRASQSVNSNLVWYQQKPGQAPRLLIYGASTRATGIPARISGSGSGTEFTLTISSLQSEDFAVYYCQQYDNRPQTFGQGTKVEIK
B4: SNV-25 (antibody, V domains shown)
VH: QVQLQESGPGLVKPSGTLSLTCAVSGGSISSSNWWSWVRQPPGKGLEWIGEIYHSGSTNYNPSLKSRATISVDKSKNQFSLKLSSVTAADTAFYYCARARGEWLAHFDYWGQGTLVTVSS
VL: DIQMTQSPSTLSASVGDRVTITCRASQSISRWLAWYQQKPGKAPKLLIYKASSLESGVPSRFSGSGSGTEFTLTISSLQPDDFAIYYCQQYNTDKTFGQGTKVEIK
B5: SNV-68 (antibody, V domains shown)
VH: QVQLQESGPGLVKPSGTLSLTCLVSGGSIGSSHWWSWVRQSPGKGLEWFGEIHHTESTNYNPSLKSRVTITMDKSKNQFYLKLTSVTAADTAVYYCARAGATFAEPFSLWGQGTMVTVSP
VL: DIQMTQSPSTLSASVGDRVTITCRAGQSVTNWLAWYQQKPGKAPKLLIYKASILASGVPSRFSGSGSGTEFTLTISSVQPDDSAVYYCQQYKSHRTFGQGTKVEIK
B6: SNV-66 (antibody, V domains shown)
VH: QVRLVESGGGVVQPGRSLRLSCAASGFTFRSYGMHWVRQAPGKGLEWVALISLDGSEKHYADSVKGRLTISRDNSKNMLYLQMNNLRVEDTAVYYCAKDRPYSWRDVLDYWGQGTLVTVSS
VL: DIQMTQSPSSLSASVGDRVTITCRASRDIHTSLNWYQHTPGKAPELLIYAASTLEMGVPSRFSGSGSGTDFTFTISSLQPEDIATYYCQQYDELPLTFGGGTKVEMK
B7: SNV-36 (antibody, V domains shown)
VH: QVQLVESGGGVVQPGRSLRLSCAASGFRFSSYAMHWVRQAPGKGLEWVATIWFDGTNEYYGDSAKGRFTISRDNSMSTLYLQMNSLRVEDTAVYYCARPANGYSDYYYGMDVWGQGTTVTVSS
VL: QSALTQPASVSGSPGQSITISCTGTSSDVGTYNLVSWYQQHPGKAPKLMIFEVNKRPSGVSYRFSGSKSGNTASLTISGLQAEDEADYYCCSYADNRTPFLFGTGTKVTVLG
B8: SNV-53 (antibody, V domains shown)
VH: EVQLVQSGAEVKTPGESLKISCKGSGYRFYTYWIAWVRQMPGKGLEWMGIIYPGDSDPRYSPSFQGQVTISADKSISTAYLQWSSLKASDTAMYYCVRVQGTMLDYWGQGTLVTVSS
VL: QSVLTQPPSVSGAPGQSVTISCSGSSSNIGAGYDVHWYQQLLGRAPKLLIHGNSNRPSGVPDRFSGSKSGTSGSLAITGLQSEDEADYYCQSYDISLSGWVFGGGTKLTVL
B9: SNV-56 (antibody, V domains shown)
VH: EVQLVESGGRLVRPGGSLRLSCAASGFTFSHYNMNWVRQAPGKGLEWVSSINSRNGYTYYADSVKGRFTISRDNAKNSLYLQMNSLRPEDTAVYYCARDPPLYSGYDLGYYYYGMDVWGQGTTVTVSS
VL: DIQMTQSPSTLSAFVGDRVTITCRANQNISKWLAWYQQKPGKAPNLLIHKASSLESGVPSRFSGSGSGTEFTLTISSLQPDDFATYSCQQYNSYPWAFGQGTRVEIK
B10: SNV-30 (antibody, V domains shown)
VH: QLQLQESGSRLVKSSETLSLTCAVSGGAITSGRNTWSWIRQPPGKGLEWIGFIYYSGSTYSNPITYSSPSLKSRVTISLDTSKNQFSLKLNSVTAADTAVYYCARAKPSNLNFYYYGMDVWGQGTTVTVSS
VL: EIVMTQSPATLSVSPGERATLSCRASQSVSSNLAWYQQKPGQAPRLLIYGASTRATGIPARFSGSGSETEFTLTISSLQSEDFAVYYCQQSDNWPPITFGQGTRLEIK
B11: SNV-65 (antibody, V domains shown)
VH: QVQLQESGPGLVKPSQTLSLTCTVSGGSISSGGYFWSWIRQHPGKGLEWIGYIYYSGSTYYNPSLKSRVTISIDTSKIQFSLKLTSVTAADTAVYYCARDVGGFDIWGQGTMVTVSS
VL: DIQMTQSPSSLSASIGDRVTITCQASQDINKYLNWYQQKPGKAPKVLIYDASNLETGVPSRFSGSGSGTDFTFTISSLQPEDVATYYCQQYENLPRTFGQGTKVEIK
B12: SNV-67 (antibody, V domains shown)
VH: QVQLVQSGAEVKKPGASVRVSCKASGYTFTAYFMNWVRQAPGQGLEWMGRINPISGDTNFAQNFQGRVTMTRDTSITTVYMELNRLTSDDTAVYYCARVRSGYSYIDFWGQGTLVTVAS
VL: SYDLTQPPSVSVSPGQTARITCSGDALSNQYAYWYQQRPGQAPVVVIYKYSERPSGIPERFSGSSSGTTVTLTISGVQAEDEADYYCQSADRLGTYWVFGGGTKLTVL
B13: SNV-24 (antibody, V domains shown)
VH: EVQLLESGGGLIQSGGSLRLSCVVSGIDFSNYAMTWVRHAPGKGLEWISTISGSGDTTNYADSAKGRFTISRDNSRNTLFVRINSLRAEDTAIYYCAKTMGPVSGQYAFDIWGQGTKVTVSS
VL: SYELTQPPSVSVSPGQTATITCSGDNLGNKFASWYQQKPGLSPVLVIYQDKKRPSGIPERFSGSNSGNTATLTISGTQAMDEADYFCQAWHSGSVFGGGTKLTVL
B14: SNV-57 (antibody, V domains shown)
VH: QVQLVESGGGVVQPGRSLRLSCAASGFTFSSYAMHWVRQAPGKGLEWVALISLDGFNTYYPDSVKGRFTISRDSSKNTLFLQLNSLRIEDTAVYYCVKDRGPTGSGSYGMDVWGQGTTVTVSS
VL: SYELTQPPSVSVSPGQTASITCSGDKLGNKFACWYQQKPGQSPVLVIHQDKKRPSGIPERFSGSNSGNTATLTISGTQAVDEADYYCQAWDSSNVVFGGGTKLTVL
B15: SNV-42 (antibody, V domains shown)
VH: EVQLVESGGGLVQPGGSLRLSCAASGFTFSTYEMNWVRQAPGKGLEWISYIRSSGSTVYYADSVKGRFTISRDNAKNLLYLQMNSLRAGDTAVYYCARIPGGYTGYFDYWGQGALVTVSS
VL: QSVLTQPPSVSGAPGQRVTISCTGSSSNIGAGYYVHWYQQLPGTVPKLLIYGNNNRPSGVPDRFSGSKSGTSASLAITGLQTEDEADYYCQSYDSSLSGWVFGGGTKLTVL
B16: SNV-45 (antibody, V domains shown)
VH: ELQLVESGGGLIRPGGSLRLSCTAAGFTFSNYNMNWVRQAPGKGLDWVSYISSSGGTTIYADSVKGRFTISRDNAKDSLYLQMNSLRDDDTAIYYCVRGRGQLATHFDYWGQGTLVTVSS
VL: ESVLTQFPDFQSVTPKEKVTITCRASQSIHINLHWYQQKPHQSPKLLIKYASQSIAGVPSRFSGSGSGTEFTLTINGLEAEDAATYYCHQSNSLPWTFGQGTKVEIK
B17: SNV-50 (antibody, V domains shown)
VH: EMQLLESGGGLIQPGESLRLSCAGSGFTFRNYAMSWVRQAPGKGLQWVSAISASGGITHYADSVKGRFTISRDNSKNTLFLQMNSLRAEDTAVYYCAKGEIMRDTGYHDDAFDVWGQGKMVTVSS
VL: DIQLTQSPSFLSASVGDRVTITCRASQGISSYLVWYQQKPGEAPKLLIYTASTLQSGVPSRFSGSGSGTEFTLTISSLQPEDFATYHCQQVESYPYSFGQGTKLEIK
B18: SNV-21 (antibody, V domains shown)
VH: QVQLVESGGGVVQPGRALRLSCAASGFTFSSYGMHWVRQAPGKGLEWVAVVWNDGGNKYYADSVKGRFTISRDNSKNTLYLQMNSLRAEDTAVYFCARDGYYVSSGYHPLRYYYYYMDVWGKGTTVAVSS
VL: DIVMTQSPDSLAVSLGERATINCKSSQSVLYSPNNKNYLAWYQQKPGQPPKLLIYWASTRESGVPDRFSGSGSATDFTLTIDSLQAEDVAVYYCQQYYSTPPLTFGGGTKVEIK
B19: SNV-27 (antibody, V domains shown)
VH: QVQLVQSGAEVKKPGASVRVSCKAYGYSFNDYFMHWVRQAPGQGLEWMGRVKPSTGGTRYAQKFQGRVTMTLDTSTSTAYVELSSLSSDDTAVYFCARKLGPLGDCSSSSCYSALDVWGQGTMVTVSS
VL: DIQMTQSPSTLSASVGDRVTITCRASESISNWLAWYQQKPGKAPKLLISKASSLESGVPSRFSGSGSGTEFTLTIGSLQPDDFATYYCQQYNTYSWTFGQGTKVDIK
B20: SNV-62 (antibody, V domains shown)
VH: QVLLVQSGAEVKKPGASVKVSCKASGYTFTSYFIHWVRQAPGQGLEWMGMINPISGNTNYAQKFQGRVTMTRDTSTRTVYMQLSSLTFEDTAVYSCVRWTTVPSSFDFWGQGTLVTVSS
VL: SYELTQPPSVSVSPGQTARITCSGDALPNQYVNWYQQKPGQAPVLMMFKDNQRPSGIPERFSGSRSGTTVTLSISGVQAEDEADYHCQSADRTATSVAFGGGTKLTVL
B21: SNV-3 (antibody, V domains shown)
VH: QVQLQQSGPGLVKPSQTLSLTCAISGDSVSSNSAAWNWIRQSPSRGLEWLGRTYYRSKWYNDYAVSVKSRITINPDTSKNQFSLQMNSVTPEDTAVYYCARDRRKLEPPPFSYYYYGLDVWGQGTTVTVSS
VL: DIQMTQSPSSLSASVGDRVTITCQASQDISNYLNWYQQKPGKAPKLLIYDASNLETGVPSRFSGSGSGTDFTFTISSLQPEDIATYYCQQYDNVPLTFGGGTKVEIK
B22: SNV-39 (antibody, V domains shown)
VH: QEQLEESGGGVVQPGRSLTLSCAASGFTFRSYDMHWVRQAPGKGLEWVALISYDGRNKHYGDSVKGRFTISRDNSKNTLYLHLSSLRAEDTSVYYCARGADNGLFTDSWGQGTLVIVSS
VL: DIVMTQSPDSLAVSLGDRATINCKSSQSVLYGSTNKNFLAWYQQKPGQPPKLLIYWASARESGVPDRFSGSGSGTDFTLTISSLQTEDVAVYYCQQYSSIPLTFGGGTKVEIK

For the first experiment, the target named is T1, Sin Nombre virus (SNV) glycoproteins Gn and Gc displayed on the surface of Expi293F cells transfected with … (Sin Nombre virus). Kind of experiment: flow.
Molecule B1 had an EC50 of 1090 ng/mL.

For B2, the EC50 was found to be 3670 ng/mL.

The next experiment concerns the target T1, Sin Nombre virus (SNV) glycoproteins Gn …. Put plainly: flow. The source holds these as a separate data set.
On to B3, for which the EC50 worked out at 14 ng/mL. On the same count and under the same terms, next, B4: 7.2 ng/mL; B5: 6.5 ng/mL; B6: 7.7 ng/mL. Same read-out and setting: next, B7: 10 ng/mL. Still for that read-out and setting: the figure for B8 is 3.5 ng/mL. On to B9, for which the EC50 came out at 66 ng/mL.

B10 came in with an EC50 of 5.5 ng/mL. The same measure, in the same setting: the figure for B11 is 3.4 ng/mL; for B12 it is 15 ng/mL.

Take B13: the EC50 amounted to 7.2 ng/mL. The same measure, in the same setting: the figure for B14 is 6 ng/mL; for B15 it is 5.9 ng/mL; for B16 it is 9.9 ng/mL. On the same count and under the same terms, next, B17: 5.2 ng/mL; B18: 20 ng/mL; B19: 11 ng/mL. Same read-out and setting: the figure for B20 is 2.6 ng/mL; for B21 it is 5.6 ng/mL.

Turning to B22, the half-maximal effective concentration (EC50) turned out to be 14 ng/mL.

As usually defined, the EC50 is the midpoint of the concentration-response curve.
